The values below come from patent publication WO2017061602A1 (dated 2017).

The target in test [1] is T1, extracellular domain human CD147-His (human, UniProt P35613 140-323).
T1 construct: Made in FreeStyle-293F cells, purified on His-Trap HP; also called extracellular domain CD147-His; human CD147 extracellular domain antigen
T1 sequence: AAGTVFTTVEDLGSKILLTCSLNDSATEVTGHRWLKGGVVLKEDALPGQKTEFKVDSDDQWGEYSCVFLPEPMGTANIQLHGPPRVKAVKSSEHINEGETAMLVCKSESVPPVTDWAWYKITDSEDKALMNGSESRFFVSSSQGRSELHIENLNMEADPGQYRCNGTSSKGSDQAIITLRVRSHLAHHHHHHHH
Kind of test: ELISA, extracellular domain human CD147-His on the plate.

The target in test [2] is T2, extracellular domain cynomolgus monkey CD147-His (cynomolgus monkey).
T2 construct: Made in FreeStyle-293F cells, purified on His-Trap HP; also called monkey extracellular domain CD147-His; cynomolgus monkey CD147 extracellular domain antigen
T2 chain: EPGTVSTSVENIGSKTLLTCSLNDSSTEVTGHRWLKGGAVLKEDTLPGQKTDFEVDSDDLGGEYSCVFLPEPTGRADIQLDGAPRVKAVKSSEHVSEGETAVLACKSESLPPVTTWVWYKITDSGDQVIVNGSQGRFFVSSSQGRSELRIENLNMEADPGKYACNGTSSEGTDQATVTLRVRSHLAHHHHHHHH
In words: ELISA, extracellular domain cynomolgus monkey CD147-His on the plate.

B1: HAb18 (antibody, V domains shown)
VH: EVKLEESGGGLVQPGGSMKLSCVASGFTFSDAWMDWVRQSPEKGLEWVAEIRSKANNHAPYYTESVKGRFTISRDDSKSIIYLQMNNLRAEDTGIYYCTRDSTATHWGQGTLVTVSA
VL: SIVMTQTPTFLVVSAGDRVTITCKASQSVINDVAWYQQKPGQSPKLLIFYASNRNTGVPDRFTGSGYGTDFTFTISTVQAEDLAVYFCQQDYSPPFTFGSGTKLEIK
notes: also called HAb18G; target antibody HAb18
Regarding B1, the binding result in test [1] is reported as “binds”; in test [2] it was “no binding”.
